B1: 2N-Fc (Fc fusion, part only; not given: linker and human IgG1 hinge-Fc, not shown: another chain or arm of the molecule; a dimerising Fc or GST; small tags and cut ends)
VH: EVQLVESGGGVVQPGRSLRLSCAASGFTFSSYGMHWVRQAPGKGLEWVAVISYDGSNKYYADSVKGRFTISRDNSKNTLYLQVSSLRAEDTAVYYCVRDLVAAAGTAFDIWGQGTTVTVSS
VL: QPVLTQPRSVSGSPGQSVTISCTGTISDVGGHNFVSWYQQNPGKAPKLIIFEVTKRPAGVPDRFSGSKSGNTASLTVSGLQAEDEGEYYCSSYGGSNDVIFGGGTKLSVL
B2: 6R-Fc (Fc fusion, part only; not given: VH-VL linker, hinge and IgG1 Fc, not shown: another chain or arm of the molecule; a dimerising Fc or GST; small tags and cut ends)
VH: QVQLQQSGPGLVKPSQTLSLTCAVSGDSVSSNFVAWNWIRQSPSRGLEWLGRTYYRSRWYNDYAVSVQSRIRVTPDTSKNQFSLHLDSVTPEDTAVYYCARGQHSGFDFWGQGTLVTVSS
VL: QSVLTQPPSVSKGLRQTATLTCTGNSNNVGNQGAAWLQQHQGHPPKLLSYRNNNRPSGISERFSASRSGNTASLTITGLQPEDEADYYCSAWDNRLKTYVFGTGGKVTVL
B3: 33-IgG1 (antibody, V domains shown)
VH: QVTLKESGGGVVQPGRSLRLSCAASGFTFTNYGLHWVRQAPGKGLEWVAVISHDGTKKYYADSVKGRFTISRDSSENTLYLQMNSLRPEDSALYYCARDGGYCSGGRCYSYGMDVWGQGTTVTVSS
VL: QSVLTQPPSASGTPGQRVTISCSGSRSNIGSNTVNWYQQLPGTAPKLLIYTNNQRPSGVPDRFSGSKSGTSASLAITGLQAEDEADYYCLSFDSSLTSYVFGTGTKVTVLG
B4: 20-Fc (Fc fusion, part only; not given: linker and human IgG1 hinge-Fc, not shown: another chain or arm of the molecule; a dimerising Fc or GST; small tags and cut ends)
VH: EVQLVQSGGGLVQPGGSLRLSCAASGFTFSSYAMSWVRQAPGKGLEWVANIKQDGSEKYYVDSVKGRFTISRDNAKNSLYLQMNSLRAEDTAVYYCARDQVSGITIFGGKWRSPDVWGQGTTVTVSS
VL: SSELTQDPAVSVALGQTVRITCQGDSLRSYYASWYQQKPGQAPVLVIYGKNNRPSGIPDRFSGSKSHNTAYLTITGAQAEDEADYFCNSRSGSQRVFGGGTKLTVL
B5: 33-Fc (Fc fusion, part only; not given: linker and human IgG1 hinge-Fc, not shown: another chain or arm of the molecule; a dimerising Fc or GST; small tags and cut ends)
VH: B3 VH
VL: QSVLTQPPSASGTPGQRVTISCSGSRSNIGSNTVNWYQQLPGTAPKLLIYTNNQRPSGVPDRFSGSKSGTSASLAITGLQAEDEADYYCLSFDSSLTSYVFGTGTKVTVL

Each binder was assayed against 2444b CXCR2/CXCR4 chimera (human) (UniProt P25025) (assay: FACS on 293T cells expressing CXCR4 variants).
2444b CXCR2/CXCR4 chimera (human), sequence (P25025 other isoform, or with tags, fused parts or gaps mutant limits assumed): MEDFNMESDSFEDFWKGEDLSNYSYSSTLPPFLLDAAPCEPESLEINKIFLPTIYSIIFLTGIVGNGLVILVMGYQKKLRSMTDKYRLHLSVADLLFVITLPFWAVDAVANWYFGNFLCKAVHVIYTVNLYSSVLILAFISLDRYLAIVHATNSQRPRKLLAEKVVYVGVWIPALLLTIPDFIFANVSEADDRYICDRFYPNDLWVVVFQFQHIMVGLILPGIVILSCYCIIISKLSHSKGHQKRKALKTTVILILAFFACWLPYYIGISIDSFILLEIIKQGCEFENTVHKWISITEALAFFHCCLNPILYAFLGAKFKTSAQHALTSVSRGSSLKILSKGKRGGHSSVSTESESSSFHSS
A binding (+%) of -6.2% was found for B1 in this work.
A binding (+%) of 2.2% was found for B2 in this work.

What follows are binders tested against ΔN25-CXCR4 (human) (UniProt P61073) (assay: FACS on 293T cells expressing CXCR4 variants).
A binding (+%) of -6.3% was found for B1 in this work.
A binding (+%) of 60% was found for B2 in this work.
A binding (+%) of 13% was found for B3 in this work.

Each binder was assayed against human CXCR4 (wild type) (human) (UniProt P61073) (assay: FACS on 293T cells expressing CXCR4 variants).
human CXCR4 (wild type) (human), sequence (P61073 whole entry): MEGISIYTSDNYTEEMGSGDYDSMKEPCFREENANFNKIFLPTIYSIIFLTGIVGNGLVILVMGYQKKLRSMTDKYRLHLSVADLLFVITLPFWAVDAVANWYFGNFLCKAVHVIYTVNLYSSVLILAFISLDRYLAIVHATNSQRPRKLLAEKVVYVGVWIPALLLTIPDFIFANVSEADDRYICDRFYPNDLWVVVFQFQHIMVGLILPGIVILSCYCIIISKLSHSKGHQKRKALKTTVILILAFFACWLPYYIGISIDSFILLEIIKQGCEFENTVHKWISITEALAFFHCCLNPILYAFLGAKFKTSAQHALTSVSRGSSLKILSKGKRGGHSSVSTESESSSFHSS
A binding (+%) of 100% was found for B1 in this work.
A binding (+%) of 100% was found for B2 in this work.

Each binder was assayed against ΔN31-CXCR4 (human) (UniProt P61073) (assay: FACS on 293T cells expressing CXCR4 variants).
A binding (+%) of -7% was found for B1 in this work.
A binding (+%) of 12.8% was found for B2 in this work.
A binding (+%) of 9% was found for B3 in this work.

What follows are binders tested against 2442 CXCR2/CXCR4 chimera (assay: FACS on 293T cells expressing CXCR4 variants).
A binding (+%) of -1.2% was found for B1 in this work.
A binding (+%) of -3.4% was found for B2 in this work.

Each binder was assayed against 4442 CXCR2/CXCR4 chimera (assay: FACS on 293T cells expressing CXCR4 variants).
A binding (+%) of 89.1% was found for B1 in this work.
A binding (+%) of -0.4% was found for B2 in this work.

These binders were tested against rhesus macaque monkey CXCR4 (rhesus macaque) (UniProt P79394) (assay: flow cytometry, scFv-Fc on transfected 293T cells).
rhesus macaque monkey CXCR4 (rhesus macaque), sequence (P79394 whole entry): as the sequence (P61073 whole entry) above, with M24I, N35H, K38R, R146K, N176S, V214D counted along it
A decrease of binding compared to human CXCR4 of 60% was found for B2 in this work.

These binders were tested against 2242 CXCR2/CXCR4 chimera (assay: flow cytometry, scFv-Fc on transfected 293T cells, FITC anti-human IgG).
A reactivity (MFI of chimeric receptor/MFI of wild type CXCR4 x 100%) of 1.2% was found for B1 in this work.
A reactivity (MFI of chimeric receptor/MFI of wild type CXCR4 x 100%) of 11.6% was found for B4 in this work.
A reactivity (MFI of chimeric receptor/MFI of wild type CXCR4 x 100%) of 0.3% was found for B5 in this work.
A reactivity (MFI of chimeric receptor/MFI of wild type CXCR4 x 100%) of 1% was found for B2 in this work.

These binders were tested against 2444b CXCR2/CXCR4 chimera (human) (UniProt P25025) in the same assay as above.
A reactivity (MFI of chimeric receptor/MFI of wild type CXCR4 x 100%) of 8.3% was found for B1 in this work.
A reactivity (MFI of chimeric receptor/MFI of wild type CXCR4 x 100%) of 12.9% was found for B4 in this work.
A reactivity (MFI of chimeric receptor/MFI of wild type CXCR4 x 100%) of 0.7% was found for B5 in this work.
A reactivity (MFI of chimeric receptor/MFI of wild type CXCR4 x 100%) of 4.7% was found for B2 in this work.

Each binder was assayed against human CXCR4 (wild type) (human) (UniProt P61073) in the same assay as above.
A reactivity (MFI of chimeric receptor/MFI of wild type CXCR4 x 100%) of 100% was found for B1 in this work.
A reactivity (MFI of chimeric receptor/MFI of wild type CXCR4 x 100%) of 100% was found for B4 in this work.
A reactivity (MFI of chimeric receptor/MFI of wild type CXCR4 x 100%) of 100% was found for B5 in this work.
A reactivity (MFI of chimeric receptor/MFI of wild type CXCR4 x 100%) of 100% was found for B2 in this work.

These binders were tested against 2442 CXCR2/CXCR4 chimera in the same assay as above.
A reactivity (MFI of chimeric receptor/MFI of wild type CXCR4 x 100%) of 4.5% was found for B1 in this work.
A reactivity (MFI of chimeric receptor/MFI of wild type CXCR4 x 100%) of 7.6% was found for B4 in this work.
A reactivity (MFI of chimeric receptor/MFI of wild type CXCR4 x 100%) of 0.7% was found for B5 in this work.
A reactivity (MFI of chimeric receptor/MFI of wild type CXCR4 x 100%) of 3.7% was found for B2 in this work.

These binders were tested against mouse CXCR4 (mouse) (UniProt P70658) in the same assay as above.
mouse CXCR4 (mouse), sequence (P70658 whole entry): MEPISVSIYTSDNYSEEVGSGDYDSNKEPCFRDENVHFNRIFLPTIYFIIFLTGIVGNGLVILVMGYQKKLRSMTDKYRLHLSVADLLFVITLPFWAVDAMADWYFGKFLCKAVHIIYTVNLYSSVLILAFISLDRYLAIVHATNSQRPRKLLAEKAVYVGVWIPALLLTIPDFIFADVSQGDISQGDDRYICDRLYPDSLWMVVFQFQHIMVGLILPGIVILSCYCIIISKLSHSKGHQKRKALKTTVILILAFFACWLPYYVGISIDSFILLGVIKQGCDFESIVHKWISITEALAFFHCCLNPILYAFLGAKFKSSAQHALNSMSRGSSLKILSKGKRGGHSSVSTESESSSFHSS
A reactivity (MFI of chimeric receptor/MFI of wild type CXCR4 x 100%) of 3.6% was found for B1 in this work.
A reactivity (MFI of chimeric receptor/MFI of wild type CXCR4 x 100%) of 2.1% was found for B5 in this work.

What follows are binders tested against CXCR2 (UniProt P25025) in the same assay as above.
CXCR2, sequence (P25025 whole entry): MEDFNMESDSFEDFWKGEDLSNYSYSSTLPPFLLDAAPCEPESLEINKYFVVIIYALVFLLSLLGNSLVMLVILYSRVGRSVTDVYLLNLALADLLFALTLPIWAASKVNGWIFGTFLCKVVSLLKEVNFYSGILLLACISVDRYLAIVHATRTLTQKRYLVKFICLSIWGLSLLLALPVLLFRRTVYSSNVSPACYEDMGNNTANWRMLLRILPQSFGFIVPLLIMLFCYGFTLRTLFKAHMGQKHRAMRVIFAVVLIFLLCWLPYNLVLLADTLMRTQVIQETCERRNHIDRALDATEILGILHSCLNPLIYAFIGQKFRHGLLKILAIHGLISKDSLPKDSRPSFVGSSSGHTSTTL
A reactivity (MFI of chimeric receptor/MFI of wild type CXCR4 x 100%) of 4.7% was found for B1 in this work.
A reactivity (MFI of chimeric receptor/MFI of wild type CXCR4 x 100%) of 4.1% was found for B4 in this work.
A reactivity (MFI of chimeric receptor/MFI of wild type CXCR4 x 100%) of -0.52% was found for B5 in this work.

Each binder was assayed against rhesus macaque monkey CXCR4 (rhesus macaque) (UniProt P79394) in the same assay as above.
A reactivity (MFI of chimeric receptor/MFI of wild type CXCR4 x 100%) of 98.3% was found for B1 in this work.
A reactivity (MFI of chimeric receptor/MFI of wild type CXCR4 x 100%) of 77.5% was found for B4 in this work.
A reactivity (MFI of chimeric receptor/MFI of wild type CXCR4 x 100%) of 103% was found for B5 in this work.
A reactivity (MFI of chimeric receptor/MFI of wild type CXCR4 x 100%) of 41.9% was found for B2 in this work.

Each binder was assayed against Δ-X4 in the same assay as above.
A reactivity (MFI of chimeric receptor/MFI of wild type CXCR4 x 100%) of -1.6% was found for B1 in this work.
A reactivity (MFI of chimeric receptor/MFI of wild type CXCR4 x 100%) of 9.6% was found for B4 in this work.
A reactivity (MFI of chimeric receptor/MFI of wild type CXCR4 x 100%) of 3.1% was found for B5 in this work.
A reactivity (MFI of chimeric receptor/MFI of wild type CXCR4 x 100%) of 16.6% was found for B2 in this work.

Each binder was assayed against 4442 CXCR2/CXCR4 chimera in the same assay as above.
A reactivity (MFI of chimeric receptor/MFI of wild type CXCR4 x 100%) of 61% was found for B1 in this work.
A reactivity (MFI of chimeric receptor/MFI of wild type CXCR4 x 100%) of 27.9% was found for B4 in this work.
A reactivity (MFI of chimeric receptor/MFI of wild type CXCR4 x 100%) of 15.5% was found for B5 in this work.
A reactivity (MFI of chimeric receptor/MFI of wild type CXCR4 x 100%) of 1.4% was found for B2 in this work.

Source: patent US20110250165A1
